This is an account of results in US20070178531A1 (BIOCHECK, published 2007).

For test [1], the target named is T1, Human Id1: Histidine (human, UniProt P41134 1-155, limits assumed).
T1 construct: Fusion protein made in E. coli from vector pGW07; also called h-Id1: his; not shown: His tag
T1 sequence (looked up): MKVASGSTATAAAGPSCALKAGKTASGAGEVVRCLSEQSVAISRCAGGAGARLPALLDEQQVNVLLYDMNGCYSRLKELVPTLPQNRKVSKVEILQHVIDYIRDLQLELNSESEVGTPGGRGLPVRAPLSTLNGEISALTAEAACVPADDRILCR
Description: ELISA, Ab 0.500 µg/ml. In general terms: An ELISA detects its analyte on a solid surface through an enzyme-linked reagent.

In test [2] the target is T2, Mouse Id2: Histidine (mouse, UniProt P41136 1-134, limits assumed).
T2 construct: Fusion protein made in E. coli from vector pGW07; also called m-Id2: His; not shown: His tag
T2 sequence (looked up): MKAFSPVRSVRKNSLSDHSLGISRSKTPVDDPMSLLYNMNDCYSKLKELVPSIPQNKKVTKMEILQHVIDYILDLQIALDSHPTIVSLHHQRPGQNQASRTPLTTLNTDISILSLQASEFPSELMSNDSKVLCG
Description: ELISA, Ab 0.500 µg/ml.

The next test has as its target T3, Human Id2: Histidine (human, UniProt Q02363 1-134, limits assumed).
T3 construct: Fusion protein made in E. coli from vector pGW07; also called h-Id2: His; not shown: His tag
T3 sequence (looked up): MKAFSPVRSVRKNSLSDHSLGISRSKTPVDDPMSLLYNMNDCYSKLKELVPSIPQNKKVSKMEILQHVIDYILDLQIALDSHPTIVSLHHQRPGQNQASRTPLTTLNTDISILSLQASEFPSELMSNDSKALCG
Description: ELISA, Ab 0.500 µg/ml.

For test [3], the target named is T4, Mouse Id3: Histidine (mouse, UniProt P41133 1-119).
T4 construct: Fusion protein made in E. coli from vector pGW07; also called m-Id3: His; Mouse Id3 (coated wells); not shown: His tag
T4 sequence: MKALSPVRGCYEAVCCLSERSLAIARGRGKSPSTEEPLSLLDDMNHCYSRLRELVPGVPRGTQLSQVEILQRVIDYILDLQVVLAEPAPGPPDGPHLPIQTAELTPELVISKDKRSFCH
Description: ELISA, Ab 0.500 µg/ml.

A further test concerns the target T5, Human Id3: Histidine (human, UniProt Q02535 1-119 at identity 1.00)).
T5 construct: Fusion protein made in E. coli from vector pGW07; also called h-Id3: His; Human Id3 (coated wells); not shown: His tag
T5 chain: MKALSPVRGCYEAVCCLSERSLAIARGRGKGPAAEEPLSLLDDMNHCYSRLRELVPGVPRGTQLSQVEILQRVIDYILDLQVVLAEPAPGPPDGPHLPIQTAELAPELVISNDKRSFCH
Description: ELISA, Ab 0.500 µg/ml.

For test [4], the target named is T6, Mouse Id1: Histidine (mouse, UniProt P20067-2 1-148, limits assumed).
T6 construct: Fusion protein made in E. coli from vector pGW07; also called m-Id1-His; not shown: His tag
T6 sequence (looked up): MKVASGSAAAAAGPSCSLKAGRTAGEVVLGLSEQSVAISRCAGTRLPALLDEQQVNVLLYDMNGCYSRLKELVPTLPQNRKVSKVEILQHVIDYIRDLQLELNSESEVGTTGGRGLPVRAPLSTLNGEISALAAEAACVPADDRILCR
Description: ELISA, Ab 0.500 µg/ml.

For test [5], the target named is T1, Human Id1: Histidine. Description: ELISA, positive control (stated to be BCH-4/6-1) 0.50 µg/ml. On the procedure: (§1) 1. Dispense 100 μL of antibody diluent, diluted rabbit monoclonal human Id3, and mouse/human Id3 hybridoma supernatants into appropriate wells. […] 2. Incubate at room temperature with mechanical shaking at 750 rpm for 90 minutes. [0165] 3. Remove the incubation mixture by flicking plate content into an appropriate waste container followed by rinsing the wells 5 times with distilled water. [0166] 4. Strike the wells sharply onto absorbent paper or paper towels to remove all residual water droplets. [0167] 5. Dispense 100 μL of 1:50,000 Goat Anti-Rabbit IgG-HRP Conjugate Reagent into each well. Gently mix for 5 seconds. [0168] 6. Incubate at room temperature with mechanical shaking at 750 rpm for 90 minutes. [0169] 7. Repeat procedures 3 and 4. [0170] 8. Dispense 100 μL of TMB Reagent into each well. Gently mix for 5 seconds. [0171] 9. Incubate at room temperature with mechanical shaking at 750 rpm for 20 minutes. […] 10. Add 100 μL of Stop Solution (1N HCl) into each well. [0173] 11. Gently mix for 10 seconds to ensure a complete mixing. [0174] 12. Read optical density at A450 nm.
(§2) The materials and method are the same as those described in Example 9 except the following.
(§3) Rabbit monoclonal anti-mouse Id3, hybridoma supernatant was used as the test antibody. Protein G purified, rabbit monoclonal anti-mouse/human Id3 antibody, BCH-4/6-1, 0.92 mg/ml in 0.25% BSA was used as positive controls.

In test [6] the target is T2, Mouse Id2: Histidine. The test is described as above. On the procedure: as §1, §2, §3
Test [7] deals with T4, Mouse Id3: Histidine. The description is as above. How it is done:
as §1, §2, §3

Test [8] has as its target T6, Mouse Id1: Histidine. Described as above. How it is done: as §1, §2, §3
The target of test [9] is T1, Human Id1: Histidine. Description: ELISA on coated wells, summary.
Another test has as its target T7, Mouse Id4: Histidine (mouse, UniProt P41139 1-161, limits assumed).
T7 construct: Fusion protein made in E. coli from vector pGW07; also called m-Id4: His; not shown: His tag
T7 sequence (looked up): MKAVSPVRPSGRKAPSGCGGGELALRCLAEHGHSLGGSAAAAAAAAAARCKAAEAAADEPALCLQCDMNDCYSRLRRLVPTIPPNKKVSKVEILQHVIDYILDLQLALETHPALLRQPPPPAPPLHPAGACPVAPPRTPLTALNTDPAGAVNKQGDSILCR
Description: ELISA on coated wells, summary.

Test [10] deals with T6, Mouse Id1: Histidine. Description: ELISA on coated wells, summary.

A value given as a limit tells only on which side of the number the result lay.

B1: rabbit monoclonal anti-mouse/human Id3, clone #BCH-4/#6-1 (antibody, V domains shown)
VH: QSVEESGGRLVTPGTPLTLTCTASGFSLSNVYIHWVRQAPGKGLEWIGYISDGDTARYATWAKGRFTISKTSSTTVNLKMTSLTTEDTATYFCARQGFNIWGPGTLVTVSL
VL: AVLTQTPSPVSAAVGGTVSISCQSSQSVWNNNWLSWFQQKPGQPPKLLIYETSKLESGVPSRFKGSGSGTQFTLTISDVQCDDAATYYCLGGYWTTSDNNVFGGGTEVVVK
notes: Rabbit IgG from a rabbit hybridoma; also called m/h Id3 MoAb 6-1
With B1, the A450 was 0.062 A450 in the test with Human Id1: Histidine [1]; 0.073 A450 with Mouse Id2: Histidine [2]; 0.062 A450 with Human Id2: Histidine; 3.47 A450 with Mouse Id3: Histidine [3]; 3.3 A450 in the test with Human Id3: Histidine; 0.067 A450 with Mouse Id1: Histidine [4]. Moreover, the A450 with Human Id1: Histidine [5] was determined as 2.13 A450; with Mouse Id2: Histidine [6], 3.1 A450; with Mouse Id3: Histidine [7] it was 3.18 A450; in the test with Mouse Id1: Histidine [8] it was 2.2 A450.

B2: rabbit monoclonal anti-human Id3, clone #BCH-4/#3-3 (antibody, V domains shown)
VH: QSVEESGGRLVTPGTPLTLTCTVSGIDLSSYAMSWVRQAPGKGLEWIGVIFPSNNVYYASWAKGRFTISKTSTTVDLKITSPTTEDTATYFCASMGAFDSWGPGTLVTVSS
VL: QVLTQTPSPVSAAVGGTVTINCQASQSIYNDNDLAWFQQKPGQPPKLLIYDASTLTSGVPSRFKGSGSGTQFTLTISDLDCDDAATYYCAARYSGNIYGFGGGTEVVVK
notes: Rabbit IgG from a rabbit hybridoma; also called h Id3 MoAb 3-3
As to B2, the “Cross-reactivity (%)” value in the test with Human Id1: Histidine [9], in the test with Mouse Id4: Histidine and with Mouse Id1: Histidine [10] was under 1% in each case.
